Assay results reported in publication PMC7416607.
pKd: −log10 of the molar value.

Legend:
[1] = biological target: poliovirus receptor-related 4 (ovis aries Nectin-4), Nectin 4-Myc (ovis aries); test: co-IP
[2] = biological target: Peste-des-petits-ruminants virus haemagglutinin (H) protein of the Nigeria 75/1 strain, Hv-HA (Peste-des-petits-ruminants virus, strain Nigeria 75/1); test: SPR
[3] = biological target: Peste-des-petits-ruminants virus haemagglutinin (H) protein of the Nigeria 75/1 strain, Hv-HA (Peste-des-petits-ruminants virus, strain Nigeria 75/1); test: co-IP

| Substance | calibrated ratio of co-IP (percent of Hv and Nectin 4) [1] [%] | pKd [2] | koff [2] [s⁻¹] | kon [2] [M⁻¹ s⁻¹] | calibrated ratio of co-IP (percent of Hv and Nectin 4) [3] [%] |
| --- | --- | --- | --- | --- | --- |
| Peste-des-petits-ruminants virus haemagglutinin (H) protein of the Nigeria 75/1 strain, Hv-HA (natural protein) | 100 | – | – | – | – |
| poliovirus receptor-related 4 (ovis aries Nectin-4), Nectin 4-Myc | – | 6.51 | 0.000435 | 1420 | 100 |
